Assay results: the supplement of paper PMC10724198
± gives the standard deviation of the averaged measurements.
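Also: PSI is a weighted mean of sequencing reads over stability bins, variants kept only with over 10 reads, mCherry proximal and sfGFP distal, peptide attached via GGGS linker.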

The sequences below were run on Saccharomyces cerevisiae (assay: protein stability index of tFT-peptide fusion (C-terminal peptide) (PSI (0-1 scale)); higher = more stable (slower turnover)). Settings: genetic background: wild type; temperature: 30 C.
For MACLRLTVYVMG, the protein stability index was 0.283 ± 0.017.
For MALAVRVVACGA, the protein stability index was 0.261 ± 0.0094.
MFLHLGLFIMSH showed a protein stability index of 0.382 ± 0.037.
Sequence MFWKFVFRGFWF has a protein stability index of 0.338 ± 0.018.
Sequence MMEMMTKSNRIP has a protein stability index of 0.517 ± 0.025.
Work on MQFVALFLVGLL yielded a protein stability index of 0.465 ± 0.0047.
With MRGPAWVCVLYS the protein stability index was 0.485 ± 0.028.
In the case of MSVLAFVCCLSG, the protein stability index is reported as 0.336 ± 0.0033.
For NDVGGYFYVCSE, the protein stability index was 0.578 ± 0.12.
For NHKTIRIQNKSI, the protein stability index was 0.302 ± 0.031.
NKYSMQNVLKSF showed a protein stability index of 0.418 ± 0.023.
Sequence NLDRYYKKIKLI has a protein stability index of 0.15 ± 0.025.
Sequence NLSYFFFSVLFF has a protein stability index of 0.499 ± 0.032.
NSCHFYSRFYLA gave a protein stability index of 0.3452 ± 0.0025.
NVALHPGVPRKC showed a protein stability index of 0.341 ± 0.036.
In the case of NYCLYFKLSRLS, the protein stability index is reported as 0.3897 ± 0.00059.
For NYVFALFYMVVA, the protein stability index was 0.254 ± 0.0054.
In the case of PALPTPPVSPSP, the protein stability index is reported as 0.333 ± 0.013.
PCVPRLLPLQLS gave a protein stability index of 0.252 ± 0.03.
For PCYRPPLPALLS, the protein stability index was 0.501 ± 0.013.
Work on PDPIFGEWVYMV yielded a protein stability index of 0.327 ± 0.0015.
PFAFLSLVLLLP showed a protein stability index of 0.418 ± 0.0045.
PFFFIFVLPFVF was tested, and the protein stability index was 0.402 ± 0.011.
Work on PFLLLVSPISSC yielded a protein stability index of 0.433 ± 0.011.
PGFCFFLYYCMM gave a protein stability index of 0.49 ± 0.034.
For PHGASLCVPPSP, the protein stability index was 0.491 ± 0.0074.
For PHGLKPHCPTPS, the protein stability index was 0.728 ± 0.02.
For PLRVFFLVAFCL, the protein stability index was 0.383 ± 0.0073.
Sequence PLSNLCRVLTFI has a protein stability index of 0.4608 ± 0.0029.
In the case of PLSSHIPVHEAR, the protein stability index is reported as 0.718 ± 0.025.
For PPLTRVPLSISA, the protein stability index was 0.413 ± 0.052.
For PPPPLATTSAPL, the protein stability index was 0.719 ± 0.04.
Sequence PPSLFLLLKVFF has a protein stability index of 0.3254 ± 0.0024.
Sequence PPSPPPLSASVP has a protein stability index of 0.578 ± 0.14.
PRHLTPPPAPSA showed a protein stability index of 0.642 ± 0.24.
For PRHVLWLRRLLF, the protein stability index was 0.334 ± 0.0067.
PRLRPQTVAFLS was tested, and the protein stability index was 0.2648 ± 0.0012.
In the case of PVGLMKRFRLFI, the protein stability index is reported as 0.455 ± 0.058.
For PVPPSLLHRPPF, the protein stability index was 0.33 ± 0.014.
PWAHIRTVQTYV gave a protein stability index of 0.437 ± 0.0069.
With PWFSWLLYSFLF the protein stability index was 0.501 ± 0.0028.
Work on PYSLYASSSSPL yielded a protein stability index of 0.727 ± 0.024.
QCSVRLKEIQFS showed a protein stability index of 0.346 ± 0.1.
QERKILGRIKQA showed a protein stability index of 0.265 ± 0.12.
In the case of QITIYPIPLARF, the protein stability index is reported as 0.79 ± 0.065.
QPSSFDMLGLLL gave a protein stability index of 0.742 ± 0.049.
Sequence RFKEKVSIIHKQ has a protein stability index of 0.207 ± 0.054.
Sequence RGYATTALHWVS has a protein stability index of 0.486 ± 0.019.
RHRGHVRLALLN showed a protein stability index of 0.396 ± 0.0095.
Work on RICCLFILLFCL yielded a protein stability index of 0.423 ± 0.057.
RIEGTLTARTAF was tested, and the protein stability index was 0.579 ± 0.18.
Work on RITGCWKTYKMQ yielded a protein stability index of 0.308 ± 0.055.
For RKNIKISKAGIG, the protein stability index was 0.279 ± 0.1.
RKRTILVIIVVK showed a protein stability index of 0.338 ± 0.061.
RKVWSLCWFVHL was tested, and the protein stability index was 0.116 ± 0.0023.
RLGRYSIIHCLA gave a protein stability index of 0.15 ± 0.0068.
For RLHCFSPILCPI, the protein stability index was 0.493 ± 0.012.
For RLIARFKILRCI, the protein stability index was 0.0979 ± 0.064.
For RLINCIYVLMLP, the protein stability index was 0.398 ± 0.029.
RLLRGDRMVICS showed a protein stability index of 0.433 ± 0.017.
For RLMLSWLALRRC, the protein stability index was 0.476 ± 0.0067.
RLPYSLTFFLLC gave a protein stability index of 0.134 ± 0.009.
RLVCPFYIACVW showed a protein stability index of 0.516 ± 0.027.
RNCSFRRIQLAM showed a protein stability index of 0.362 ± 0.045.
Sequence RNKIWCTVIMRL has a protein stability index of 0.4002 ± 0.0026.
RPAVVPPPFAPL showed a protein stability index of 0.76 ± 0.041.
RQALYFLMICGL was tested, and the protein stability index was 0.421 ± 0.0045.
With RRIKIRKQEYIS the protein stability index was 0.313 ± 0.029.
With RRRRHVDHSTQR the protein stability index was 0.4737 ± 0.0036.
With RTWLHLVVPVWG the protein stability index was 0.3367 ± 0.0022.
In the case of RVGWVVVLGCVG, the protein stability index is reported as 0.479 ± 0.0089.
In the case of RVHFLIVFLCRF, the protein stability index is reported as 0.399 ± 0.051.
RVSIIYLGVLIS showed a protein stability index of 0.112 ± 0.025.
In the case of RVTYWKAVLVRL, the protein stability index is reported as 0.212 ± 0.016.
Work on RYCVVDISAFCD yielded a protein stability index of 0.465 ± 0.0094.
RYLCLTPALYLS showed a protein stability index of 0.151 ± 0.11.
SCFRFFFLFLFF gave a protein stability index of 0.322 ± 0.052.
SCFRSLAVYFLC gave a protein stability index of 0.155 ± 0.032.

What follows are sequences tested on Saccharomyces cerevisiae in the same assay as above. Settings: genetic background: cdc34-1; temperature: 37 C.
Experimental: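 MPS profiling in S. cerevisiae of the tFT-X12 degron library: putative degron peptides plus stable controls, 12 aa, fused to the C-terminus of a sfGFP-mCherry timer. Cells are FACS-sorted into 8 mCherry/sfGFP bins and deep-sequenced. PSI runs from 0 (unstable) to 1 (stable). Backgrounds are wild type, das1Δ and doa10Δ at 30 °C, and wild type, das1Δ, cdc34-1 and cdc53-1 at 37 °C; 2-3 technical replicates each.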
MACLRLTVYVMG gave a protein stability index of 0.0763 ± 0.013.
Work on MALAVRVVACGA yielded a protein stability index of 0.125 ± 0.032.
MFLHLGLFIMSH was tested, and the protein stability index was 0.348 ± 0.011.
Sequence MFWKFVFRGFWF has a protein stability index of 0.694 ± 0.064.
Sequence MMEMMTKSNRIP has a protein stability index of 0.683 ± 0.029.
Work on MQFVALFLVGLL yielded a protein stability index of 0.465 ± 0.041.
In the case of MRGPAWVCVLYS, the protein stability index is reported as 0.637 ± 0.026.
Work on MSVLAFVCCLSG yielded a protein stability index of 0.3532 ± 0.0026.
NDVGGYFYVCSE gave a protein stability index of 0.682 ± 0.013.
In the case of NHKTIRIQNKSI, the protein stability index is reported as 0.67783 ± 7.8e-06.
For NKYSMQNVLKSF, the protein stability index was 0.7 ± 0.034.
NLDRYYKKIKLI gave a protein stability index of 0.338 ± 0.025.
NLSYFFFSVLFF gave a protein stability index of 0.552 ± 0.069.
For NSCHFYSRFYLA, the protein stability index was 0.651 ± 0.012.
For NVALHPGVPRKC, the protein stability index was 0.656 ± 0.038.
For NYCLYFKLSRLS, the protein stability index was 0.62 ± 0.029.
NYVFALFYMVVA showed a protein stability index of 0.196 ± 0.022.
With PALPTPPVSPSP the protein stability index was 0.613 ± 0.092.
Work on PCVPRLLPLQLS yielded a protein stability index of 0.628 ± 0.019.
PCYRPPLPALLS gave a protein stability index of 0.613 ± 0.013.
PDPIFGEWVYMV was tested, and the protein stability index was 0.57943 ± 4.3e-05.
For PFAFLSLVLLLP, the protein stability index was 0.51 ± 0.017.
PFFFIFVLPFVF was tested, and the protein stability index was 0.456 ± 0.045.
With PFLLLVSPISSC the protein stability index was 0.416 ± 0.037.
Sequence PGFCFFLYYCMM has a protein stability index of 0.4815 ± 0.0025.
PHGASLCVPPSP was tested, and the protein stability index was 0.675 ± 0.025.
PHGLKPHCPTPS showed a protein stability index of 0.685 ± 0.026.
With PLRVFFLVAFCL the protein stability index was 0.451 ± 0.009.
PLSNLCRVLTFI gave a protein stability index of 0.557 ± 0.078.
PLSSHIPVHEAR showed a protein stability index of 0.659 ± 0.052.
In the case of PPLTRVPLSISA, the protein stability index is reported as 0.434 ± 0.0084.
PPPPLATTSAPL showed a protein stability index of 0.687 ± 0.046.
In the case of PPSLFLLLKVFF, the protein stability index is reported as 0.321 ± 0.0034.
PPSPPPLSASVP showed a protein stability index of 0.661 ± 0.04.
PRHLTPPPAPSA gave a protein stability index of 0.704 ± 0.059.
With PRHVLWLRRLLF the protein stability index was 0.68 ± 0.052.
Work on PRLRPQTVAFLS yielded a protein stability index of 0.68 ± 0.038.
PVGLMKRFRLFI gave a protein stability index of 0.698 ± 0.088.
For PVPPSLLHRPPF, the protein stability index was 0.679 ± 0.056.
For PWAHIRTVQTYV, the protein stability index was 0.673 ± 0.0069.
Sequence PWFSWLLYSFLF has a protein stability index of 0.546 ± 0.024.
Work on PYSLYASSSSPL yielded a protein stability index of 0.696 ± 0.045.
With QCSVRLKEIQFS the protein stability index was 0.664 ± 0.032.
QERKILGRIKQA was tested, and the protein stability index was 0.51 ± 0.078.
Work on QITIYPIPLARF yielded a protein stability index of 0.951 ± 0.015.
QPSSFDMLGLLL was tested, and the protein stability index was 0.6791 ± 0.0055.
With RFKEKVSIIHKQ the protein stability index was 0.6446 ± 0.0022.
RGYATTALHWVS showed a protein stability index of 0.668 ± 0.038.
With RHRGHVRLALLN the protein stability index was 0.7 ± 0.079.
With RICCLFILLFCL the protein stability index was 0.439 ± 0.043.
Sequence RIEGTLTARTAF has a protein stability index of 0.736 ± 0.069.
RITGCWKTYKMQ was tested, and the protein stability index was 0.6341 ± 0.00082.
With RKNIKISKAGIG the protein stability index was 0.283 ± 0.0034.
RKRTILVIIVVK showed a protein stability index of 0.181 ± 0.031.
In the case of RKVWSLCWFVHL, the protein stability index is reported as 0.49 ± 0.071.
Work on RLGRYSIIHCLA yielded a protein stability index of 0.295 ± 0.023.
RLHCFSPILCPI was tested, and the protein stability index was 0.6063 ± 0.0042.
RLIARFKILRCI gave a protein stability index of 0.259 ± 0.012.
RLINCIYVLMLP gave a protein stability index of 0.567 ± 0.042.
For RLLRGDRMVICS, the protein stability index was 0.5515 ± 0.0014.
Sequence RLMLSWLALRRC has a protein stability index of 0.617 ± 0.058.
RLPYSLTFFLLC was tested, and the protein stability index was 0.414 ± 0.0067.
RLVCPFYIACVW was tested, and the protein stability index was 0.623 ± 0.012.
In the case of RNCSFRRIQLAM, the protein stability index is reported as 0.651 ± 0.063.
RNKIWCTVIMRL gave a protein stability index of 0.51 ± 0.042.
RPAVVPPPFAPL showed a protein stability index of 0.652 ± 0.032.
RQALYFLMICGL was tested, and the protein stability index was 0.508 ± 0.024.
Work on RRIKIRKQEYIS yielded a protein stability index of 0.572 ± 0.13.
Sequence RRRRHVDHSTQR has a protein stability index of 0.495 ± 0.04.
Sequence RTWLHLVVPVWG has a protein stability index of 0.213 ± 0.026.
Sequence RVGWVVVLGCVG has a protein stability index of 0.545 ± 0.04.
RVHFLIVFLCRF gave a protein stability index of 0.441 ± 0.012.
In the case of RVSIIYLGVLIS, the protein stability index is reported as 0.174 ± 0.012.
For RVTYWKAVLVRL, the protein stability index was 0.47 ± 0.07.
RYCVVDISAFCD was tested, and the protein stability index was 0.489 ± 0.017.
RYLCLTPALYLS gave a protein stability index of 0.45 ± 0.014.
Work on SCFRFFFLFLFF yielded a protein stability index of 0.192 ± 0.011.
SCFRSLAVYFLC gave a protein stability index of 0.333 ± 0.025.
